Results on four molecules are retold here after article PMC9798946, “Properties and Activity of Peptide Derivatives of ACE2 Cellular Receptor and Their Interaction with SARS-CoV-2 S Protein Receptor-Binding Domain” (Doklady. Biochemistry and Biophysics, 2022).

Data set [1] can be described thus: Degree of α-helicity by circular dichroism (CD) spectroscopy. The data set is classed as physicochemical. Background: Circular dichroism is the unequal absorption of left and right circularly polarised light.
Data set [2] deals with T1, SARS-CoV-2 S protein RBD RBD (Severe acute respiratory syndrome coronavirus 2), P0DTC2. Conditions: modification not given.
The target of data set [3] is T1, SARS-CoV-2 S protein RBD RBD (Severe …). Conditions: modification not given. The source holds these as a separate data set.
The target is the same in data set [4]. Conditions: modification not given. The source holds these as a separate data set.
For data set [5] the target is unchanged. Conditions: modification not given. This is another data set of the same source.
Data set [6] has the same target. Conditions: modification not given. This is another data set of the same source.

Where two headings read alike, the source gives them in different places.

Consider `CC[C@H](C)[C@H](N)C(=O)N[C@@H](CCC(=O)O)C(=O)N[C@@H](CCC(=O)O)C(=O)N[C@@H](CCC(N)=O)C(=O)N[C@@H](C)C(=O)N[C@@H](CCCCN)C(=O)N[C@H](C(=O)N[C@@H](Cc1ccccc1)C(=O)N[C@@H](CC(C)C)C(=O)N[C@@H](CC(=O)O)C(=O)N[C@@H](CCCCNC(=O)CCS)C(=O)N[C@@H](Cc1ccccc1)C(=O)N[C@@H](CC(N)=O)C(=O)N[C@@H](Cc1c[nH]cn1)C(=O)N[C@@H](CCC(N)=O)C(=O)N[C@@H](C)C(=O)N[C@@H](CCC(=O)O)C(=O)N[C@@H](CC(=O)O)C(=O)N[C@@H](CC(C)C)C(=O)N[C@@H](Cc1ccccc1)C(=O)N[C@@H](Cc1ccc(O)cc1)C(=O)N[C@H](CCCCN)C(=O)O)[C@@H](C)O` [h1–Mpa], for which, in data set [1] (solvent H2O), the “α-Helicity, H2O” value is on record as 6.0%. Moreover, in data set [1] (solvent trifluoroethanol (TFE)), the “α-Helicity, TFE” value stood at 85.3%. The “α-Helicity, WEM” value in data set [1] (solvent water–ethanol mixture (WEM)) is on record as 37.8%.
What is called Kd is the concentration at which binding is half-saturated. A lower Kd goes with a tighter complex. In the case of DKWSAFLKEQSTIAQMYPLQECI [h2 (67-89)], the equilibrium dissociation constant (Kd) in data set [2] was determined as 2580 nM; in data set [3], 40000 nM.
In data set [4], IEEQAKTFLDKFNHQAEDLFYK [h1-Mpa (21-42)] showed an equilibrium dissociation constant (Kd) of 1070 nM.
For NCGDKWSAFLKEQSTLAQMYPLQE [900h2 (64-87)], the figures for the Kd in data set [5] and in data set [6] were 7220 nM and 1700 nM, respectively.
